Reference: PMC10329691, “The structural pathology for hypophosphatasia caused by malfunctional tissue non-specific alkaline phosphatase” (Nature Communications, 2023)

Assays:
[1] = molecular target: the molecule itself; experiment: SEC; Superdex 200 Increase 10/300 GL, 20 mM HEPES pH 7.5, 150 mM NaCl; purified TNAP alone
[2] = molecular target: the molecule itself; experiment: SEC-MALS; static light scattering, WTC-030S5 column, 150 mM NaCl, 20 mM HEPES pH 7.5, 0.5 mL/min
[3] = molecular target: the molecule itself; experiment: crystal structure; crystals of hTNAP 18-500 grown at acidic pH (PEG3350, sodium acetate pH 5.0; about 2.9 Å) and at basic pH (PEG4000, Tris pH 8.0, MgCl2; about 3.2 Å)
[4] = molecular target: T1, human tissue non-specific alkaline phosphatase, amino acids 18-500 (hTNAP^18–500) (human, UniProt P05186, N-glycosylation (asparagine residues, seen in the crystal structure)); experiment: cryo-EM structure; hTNAP 18-500-scFv complex, 300 kV Titan Krios, C2 symmetry, 2.96 Å; conditions: both partners purified
T1 construct: human tissue non-specific alkaline phosphatase (ALPL gene), amino acids 18-500, the mature form with the GPI-anchor amidated residue Ser 501 removed; HA signal peptide at the N-terminus for secretion; TEV protease site before the Flag and His tags, no cleavage described; Dimer dominates in solution, with higher oligomers; octamer in the crystals; The same range was also made in Expi293F from …

B1: TNAP^T167M (active site mutant of hTNAP 18-500) (enzyme, human, UniProt P05186 18-500, looked up)
chain: LVPEKEKDPKYWRDQAQETLKYALELQKLNTNVAKNVIMFLGDGMGVSTVTAARILKGQLHHNPGEETRLEMDKFPFVALSKTYNTNAQVPDSAGTATAYLCGVKANEGTVGVSAATERSRCNTTQGNEVTSILRWAKDAGKSVGIVTTMRVNHATPSAAYAHSADRDWYSDNEMPPEALSQGCKDIAYQLMHNIRDIDVIMGGGRKYMYPKNKTDVEYESDEKARGTRLDGLDLVDTWKSFKPRYKHSHFIWNRTELLTLDPHNVDYLLGLFEPGDMQYELNRNNVTDPSLSEMVVVAIQILRKNPKGFFLLVEGGRIDHGHHEGKAKQALHEAVEMDRAIGQAGSLTSSEDTLTVVTADHSHVFTFGGYTPRGNSIFGLAPMLSDTDKKPFTAILYGNGPGYKVVGGERENVSMVDYAHNNYQAQSAVPLRHETHGGEDVAVFSKGPMAHLLHGVHEQNYVPHVMAYAACIGANLGHCAPA
notes: human tissue non-specific alkaline phosphatase, amino acids 18-500, with the hypophosphatasia mutation T167M; HA signal peptide at the N-terminus; PreScission site before the tags; also called active site mutant TNAP^T167M; source: Expi293F, transfected, purified from the supernatant (Nickel-chelating resin, SEC)
[1]
  stoichiometry N: 2

B2: TNAP^R450C (dimeric interface mutant of hTNAP 18-500) (enzyme, human, UniProt P05186 18-500, looked up)
chain: LVPEKEKDPKYWRDQAQETLKYALELQKLNTNVAKNVIMFLGDGMGVSTVTAARILKGQLHHNPGEETRLEMDKFPFVALSKTYNTNAQVPDSAGTATAYLCGVKANEGTVGVSAATERSRCNTTQGNEVTSILRWAKDAGKSVGIVTTTRVNHATPSAAYAHSADRDWYSDNEMPPEALSQGCKDIAYQLMHNIRDIDVIMGGGRKYMYPKNKTDVEYESDEKARGTRLDGLDLVDTWKSFKPRYKHSHFIWNRTELLTLDPHNVDYLLGLFEPGDMQYELNRNNVTDPSLSEMVVVAIQILRKNPKGFFLLVEGGRIDHGHHEGKAKQALHEAVEMDRAIGQAGSLTSSEDTLTVVTADHSHVFTFGGYTPRGNSIFGLAPMLSDTDKKPFTAILYGNGPGYKVVGGERENVSMVDYAHNNYQAQSAVPLCHETHGGEDVAVFSKGPMAHLLHGVHEQNYVPHVMAYAACIGANLGHCAPA
notes: human tissue non-specific alkaline phosphatase, amino acids 18-500, with the hypophosphatasia mutation R450C; HA signal peptide at the N-terminus; PreScission site before the tags; also called dimeric interface mutant TNAP^R450C; source: Expi293F, transfected, purified from the supernatant (Nickel-chelating resin, SEC)
[1]
  stoichiometry N: 2

B3: human tissue non-specific alkaline phosphatase, amino acids 18-500 (hTNAP^18–500) (enzyme, UniProt P05186 18-500, looked up)
chain: LVPEKEKDPKYWRDQAQETLKYALELQKLNTNVAKNVIMFLGDGMGVSTVTAARILKGQLHHNPGEETRLEMDKFPFVALSKTYNTNAQVPDSAGTATAYLCGVKANEGTVGVSAATERSRCNTTQGNEVTSILRWAKDAGKSVGIVTTTRVNHATPSAAYAHSADRDWYSDNEMPPEALSQGCKDIAYQLMHNIRDIDVIMGGGRKYMYPKNKTDVEYESDEKARGTRLDGLDLVDTWKSFKPRYKHSHFIWNRTELLTLDPHNVDYLLGLFEPGDMQYELNRNNVTDPSLSEMVVVAIQILRKNPKGFFLLVEGGRIDHGHHEGKAKQALHEAVEMDRAIGQAGSLTSSEDTLTVVTADHSHVFTFGGYTPRGNSIFGLAPMLSDTDKKPFTAILYGNGPGYKVVGGERENVSMVDYAHNNYQAQSAVPLRHETHGGEDVAVFSKGPMAHLLHGVHEQNYVPHVMAYAACIGANLGHCAPA
modifications: N-glycosylation (asparagine residues, seen in the crystal structure)
notes: human tissue non-specific alkaline phosphatase (ALPL gene), amino acids 18-500, the mature form with the GPI-anchor amidated residue Ser 501 removed; HA signal peptide at the N-terminus for secretion; TEV protease site before the Flag and His tags, no cleavage described; Dimer dominates in solution, with higher oligomers; octamer in the crystals; The same range was also made in Expi293F from …
[2]
  stoichiometry N: 2
[3]
  stoichiometry N: 8

B4: scFv of the TNAP agonist antibody JTALP001 (scFv, V domains shown)
VH: QVQLVQSGAEVKKPGASVKVSCKASGYTFTSYGISWVRQAPGQGLEWMGWISAYNGNTNYAQKLQGRVTMTTDTSTSTAYMELRSLRSDDTAVYYCARDKGWNSEGSLEYWGQGTLVTVSS
VL: DIVMTQSPSSVSASVGDRVTITCRASQGISNWLGWYQQKPGKAPKLLIYGASSLQSGVPSRFSGSGSGTDFTLTISSLQPEDFATYFCQQAYSLPLTFGGGTKLEIK
notes: scFv selected from a human scFv phage library against hTNAP 18-500; The Fc fragment of JTALP001 was replaced by a His-tag; also called scFv fragment; scFv antibody; source: Expi293F, purified (Nickel-chelating resin)
[4]
  stoichiometry N: 1 scFv per TNAP protomer
